According to paper PMC3734125, “Epitope Mapping and In Silico Characterization of Interactions between Der p 7 Allergen and MoAb WH9” (PLoS ONE, 2013):

Experiments:
Test in all cases: far-Western, overlay or dot blot; SDS-PAGE immunoblot: purified recombinant Der p 7 proteins on PVDF membrane, incubated with hybridoma culture supernatant (1:10 in TTBS, 1% skim milk) 1 h at room temperature; band intensities quantified; percent reduction against the wild type
Settings in all cases: one partner purified
[1] = biological target: T1, Der p 7 (wild type, recombinant) (Dermatophagoides pteronyssinus, UniProt P49273)
T1 construct: Mite allergen Der p 7, Dermatophagoides pteronyssinus, GenBank U37044; Expression and purification are described for the mutants (pQE80, E. coli JM109, Ni-NTA); also called wild-type Der p 7; source: purified recombinant protein
T1 sequence (P49273 18-215): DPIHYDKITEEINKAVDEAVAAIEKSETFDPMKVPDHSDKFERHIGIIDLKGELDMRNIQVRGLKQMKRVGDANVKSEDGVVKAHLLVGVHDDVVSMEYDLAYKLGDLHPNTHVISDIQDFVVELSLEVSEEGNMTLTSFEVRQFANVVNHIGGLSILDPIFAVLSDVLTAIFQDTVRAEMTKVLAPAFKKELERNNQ

Der p 7 S156A mutant = biological target: T2, Der p 7 S156A mutant (Dermatophagoides pteronyssinus, UniProt P49273, S156A)
T2 construct: Mite allergen Der p 7, Dermatophagoides pteronyssinus, GenBank U37044; source: E. coli JM109, purified (Ni-NTA)
T2 sequence (P49273 18-215 S156A): as the sequence (P49273 18-215) above, with S139A counted along it

Der p 7 L158A mutant = biological target: T3, Der p 7 L158A mutant (Dermatophagoides pteronyssinus, UniProt P49273, L158A)
T3 construct: Mite allergen Der p 7, Dermatophagoides pteronyssinus, GenBank U37044; source: E. coli JM109, purified (Ni-NTA)
T3 sequence (P49273 18-215 L175A): as the sequence (P49273 18-215) above, with L158A counted along it

Der p 7 D159A mutant = biological target: T4, Der p 7 D159A mutant (Dermatophagoides pteronyssinus, UniProt P49273, D159A)
T4 construct: Mite allergen Der p 7, Dermatophagoides pteronyssinus, GenBank U37044; source: E. coli JM109, purified (Ni-NTA)
T4 sequence (P49273 18-215 D176A): as the sequence (P49273 18-215) above, with D159A counted along it

Der p 7 P160A mutant = biological target: T5, Der p 7 P160A mutant (Dermatophagoides pteronyssinus, UniProt P49273, P160A)
T5 construct: Mite allergen Der p 7, Dermatophagoides pteronyssinus, GenBank U37044; also called P106A (as printed once); source: E. coli JM109, purified (Ni-NTA)
T5 sequence (P49273 18-215 P177A): as the sequence (P49273 18-215) above, with P160A counted along it

B1: MoAb WH9 (antibody, V domains shown)
VH: QVQLEQSGAELAKVGASVKMSCKASGYTFTNYWMHWVKQRPGQGLEWIGYINPSIGYIDYNQKFKDKATLTVDKSSSTAYMQLSSLTSEDSAVYYCAGVEYGSSLGDYFDDWGQGTTL
VL: not shown
notes: variable domain of the heavy chain of WH9; the first nine amino acids derive from the PCR primer; variable domain of the light chain of WH9; the first eight amino acids derive from the PCR primer; also called mouse monoclonal antibody WH9; source: hybridoma WH9, culture supernatant
[1]
  binding result: binds
Der p 7 S156A mutant
  mean percentage of reduction in immunoreactivity against the wild type: 18%
Der p 7 L158A mutant
  mean percentage of reduction in immunoreactivity against the wild type: 87%
Der p 7 D159A mutant
  mean percentage of reduction in immunoreactivity against the wild type: 81%
Der p 7 P160A mutant
  mean percentage of reduction in immunoreactivity against the wild type: 87%
